Test results reported in patent US20250034268A1.

Key:
[1] = target: human BCMA expressed on the cell surface (human) (UniProt Q02223); assay: flow cytometry on AMO1 cells
[2] = target: human BCMA expressed on the cell surface (human) (UniProt Q02223); assay: flow cytometry on H929 cells
[3] = target: human BCMA expressed on the cell surface (human) (UniProt Q02223); assay: flow cytometry on L363 cells
[4] = target: human BCMA expressed on the cell surface (human) (UniProt Q02223); assay: flow cytometry on U266 cells
[5] = target: human BCMA expressed on the cell surface (human) (UniProt Q02223); assay: flow cytometry on MM.1s cells
[6] = target: human BCMA expressed on the cell surface (human) (UniProt Q02223); assay: flow cytometry on RPMI8226 cells
[7] = target: human BCMA expressed on the cell surface (human) (UniProt Q02223); assay: flow cytometry on hBCMA-CHO-GS cells
[8] = target: mouse BCMA expressed on CHO GS cells (mouse) (UniProt O88472); assay: flow cytometry on mBCMA-CHO-GS cells
mouse BCMA expressed on CHO GS cells (mouse), sequence (O88472 whole entry): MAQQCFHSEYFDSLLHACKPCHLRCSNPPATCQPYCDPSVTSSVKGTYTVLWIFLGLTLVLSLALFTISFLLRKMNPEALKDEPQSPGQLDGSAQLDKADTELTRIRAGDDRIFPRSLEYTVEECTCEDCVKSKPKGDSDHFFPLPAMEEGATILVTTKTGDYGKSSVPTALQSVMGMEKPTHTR

[9] = target: cynomolgus monkey BCMA expressed on CHO GS cells (cynomolgus monkey); assay: flow cytometry on cynoBCMA-CHO-GS cells
cynomolgus monkey BCMA expressed on CHO GS cells (cynomolgus monkey), sequence (chain, as listed by the source): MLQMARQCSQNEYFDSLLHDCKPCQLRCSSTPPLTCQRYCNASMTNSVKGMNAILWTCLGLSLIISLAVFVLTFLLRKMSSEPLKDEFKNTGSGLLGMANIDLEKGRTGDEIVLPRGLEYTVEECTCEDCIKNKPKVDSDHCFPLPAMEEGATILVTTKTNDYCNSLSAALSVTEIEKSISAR

human BCMA expressed on the cell surface (human), sequence (Q02223 whole entry): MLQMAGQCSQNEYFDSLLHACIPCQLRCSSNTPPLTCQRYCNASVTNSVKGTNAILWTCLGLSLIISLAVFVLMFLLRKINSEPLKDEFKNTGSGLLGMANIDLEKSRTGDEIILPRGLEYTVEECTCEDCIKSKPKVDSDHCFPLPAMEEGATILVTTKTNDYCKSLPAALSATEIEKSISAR

GSK PG antibody (BCMA antibody clone J6M0 of GSK, P329G human IgG1)
EC50 [1]: 12.9 nM | EC50 [2]: 7.69 nM | EC50 [3]: 10.4 nM | EC50 [4]: 8.74 nM | EC50 [5]: 7.54 nM | EC50 [6]: 5.97 nM | EC50 [7]: 5 nM | EC50 [8]: 132 nM | EC50 [9]: 10 nM
